Laboratory results reported in PMC4737141.

Biological target: Recombinant human Tipin-His6 (human) (UniProt Q9BVW5)
Assay: SPR

UniProt Q9BVW5, sequence (Q9BVW5 whole entry): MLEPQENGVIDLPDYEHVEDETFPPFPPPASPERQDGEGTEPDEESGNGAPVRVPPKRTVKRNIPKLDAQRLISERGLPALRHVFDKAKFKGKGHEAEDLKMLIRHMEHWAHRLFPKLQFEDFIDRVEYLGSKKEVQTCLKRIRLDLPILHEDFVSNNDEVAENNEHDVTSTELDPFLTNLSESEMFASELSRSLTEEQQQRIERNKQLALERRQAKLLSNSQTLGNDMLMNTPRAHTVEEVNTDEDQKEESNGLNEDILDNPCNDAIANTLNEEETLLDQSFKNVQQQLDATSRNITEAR

- Kd: 0.655 µM
Substance: Recombinant human DDX11-3xFLAG (from UniProt Q96FC9 1-970) (enzyme)
